Data reported in patent US20180037644A1 (Pfizer, published 2018).

Experiments:
[1] = biological target: T1, cynomolgus monkey IL-33 (cys mut) (cynomolgus monkey); assay: SPR, IL-33 amine-coupled to CM5, Fab in solution, 37 C
T1 construct: Variant in which the three cysteine residues are serine; N-terminal Met and C-terminal His6 in the entry; also called cyno IL-33; cyno IL-33 (cys mut)
T1 chain: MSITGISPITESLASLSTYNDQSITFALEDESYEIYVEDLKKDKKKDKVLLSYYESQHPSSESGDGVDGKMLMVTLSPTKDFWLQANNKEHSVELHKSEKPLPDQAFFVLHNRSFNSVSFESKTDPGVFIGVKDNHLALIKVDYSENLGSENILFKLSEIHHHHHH
Experimental: (§1) Biacore kinetic assays were conducted at 37° C. at a collection rate of 1 Hz on a Biacore T200 instrument (GE Healthcare). Human IL33 (mm2), cynomolgus monkey IL-33, and reduced huIL33 wt were covalently coupled to a CM5 sensor chip (catalogue number BR100530, GE Healthcare) using an amine coupling kit (catalogue number BR100050, GE Healthcare) according to the manufacturer's protocol. […] The dilution and running buffer was HBS-EP+(10 mM HEPES pH 7.4, 0.15M NaCl, 3 mM EDTA, 0.05% P-20). Rate constants and affinities were determined by fitting the resulting sensorgram data to a 1:1 model in Biacore T200 Evaluation software version 1.0 (GE Healthcare).

[2] = biological target: T2, human IL-33 (mm2) (human, UniProt O95760 112-270); assay: as above
T2 construct: Variant in which all four cysteine residues are serine; the entry carries an N-terminal Met and a C-terminal His6; Biotinylated in some assays; also called hIL-33 (mm2); huIL-33 (mm2)
T2 chain: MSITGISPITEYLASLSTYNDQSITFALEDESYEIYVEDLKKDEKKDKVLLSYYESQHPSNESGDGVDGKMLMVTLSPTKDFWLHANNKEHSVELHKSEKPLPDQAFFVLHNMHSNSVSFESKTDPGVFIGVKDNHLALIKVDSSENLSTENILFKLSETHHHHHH
Experimental: as §1

[3] = biological target: T3, IL-1α (UniProt P01583 113-271); assay: SPR (Biacore T200), Fab captured on the chip, cytokine injected
T3 sequence (looked up): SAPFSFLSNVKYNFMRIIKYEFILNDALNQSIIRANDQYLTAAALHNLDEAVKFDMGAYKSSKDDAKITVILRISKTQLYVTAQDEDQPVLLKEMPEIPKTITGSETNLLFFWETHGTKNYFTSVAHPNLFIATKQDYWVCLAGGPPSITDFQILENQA
From the text: (§2) The panel of cytokines included IL-1α, IL-1β, IL-18, IL-36α, and IL-36γ.

[4] = biological target: IL-1β (UniProt P01584 117-269); assay: as above
From the text: as §2

[5] = biological target: T4, IL-18 (UniProt Q14116 37-193); assay: as above
T4 sequence (looked up): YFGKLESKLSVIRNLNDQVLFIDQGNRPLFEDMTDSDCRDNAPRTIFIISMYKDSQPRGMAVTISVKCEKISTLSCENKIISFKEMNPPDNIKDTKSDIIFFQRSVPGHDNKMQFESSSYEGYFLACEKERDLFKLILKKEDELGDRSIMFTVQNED
From the text: as §2

[6] = biological target: T5, IL-36α (UniProt Q9UHA7 6-158); assay: as above
T5 sequence (looked up): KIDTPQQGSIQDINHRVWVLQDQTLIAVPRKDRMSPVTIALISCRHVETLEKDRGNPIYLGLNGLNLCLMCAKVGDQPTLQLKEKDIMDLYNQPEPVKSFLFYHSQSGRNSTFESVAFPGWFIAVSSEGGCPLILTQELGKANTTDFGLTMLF
From the text: as §2

[7] = biological target: T6, IL-36γ (UniProt Q9NZH8 18-169); assay: as above
T6 sequence (looked up): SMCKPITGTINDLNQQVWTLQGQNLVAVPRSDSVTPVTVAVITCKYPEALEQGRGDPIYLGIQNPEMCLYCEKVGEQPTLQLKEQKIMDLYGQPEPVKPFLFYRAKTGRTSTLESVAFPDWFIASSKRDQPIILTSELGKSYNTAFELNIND
From the text: as §2

[8] = biological target: T2, human IL-33 (mm2); assay: SPR, biotinylated IL-33 on streptavidin sensor, Fab in solution; immobilized IL-33 (mm2); Fab in solution
Experimental: Surface plasmon resonance experiments were conducted in two formats.

[9] = biological target: T2, human IL-33 (mm2); assay: KinExA, fixed-antigen format, both partners in solution
Experimental: (§3) HuIL33 wt was reduced in 3 mM DTT for a minimum of two hrs prior to use. Affinity determinations were made at room temperature using the fixed antigen assay format. Equilibrium binding was achieved by incubation at 25° C. for 72 hrs. Data analysis was performed with the KinExA Pro software version 3.6.5 (Sapidyne). […] The “drift correction” was used when appropriate. Multiple curves were obtained, both receptor and KD controlled, in independent experiments and analyzed using the “n-curve analysis” tool to obtain global best fit values for the KD and active concentration. The software reports each best fit value along with a 95% confidence interval.
(§4) Table 13. Affinity determinations were made using the fixed-antigen assay format. […] The 95% confidence interval, shown in parentheses with the kD, and percent error are calculated by KinExA software based on a least-squares fit of the theoretical binding equation to the measured signals.

[10] = biological target: T7, human IL-33 WT, reduced with DTT (human, UniProt O95760 112-270); assay: as above
T7 construct: Wild-type cysteines, FLAG tag in the entry; reduced with 3 mM DTT before use; also called huIL33 wt; hu IL-33 (WT + DTT)
T7 sequence: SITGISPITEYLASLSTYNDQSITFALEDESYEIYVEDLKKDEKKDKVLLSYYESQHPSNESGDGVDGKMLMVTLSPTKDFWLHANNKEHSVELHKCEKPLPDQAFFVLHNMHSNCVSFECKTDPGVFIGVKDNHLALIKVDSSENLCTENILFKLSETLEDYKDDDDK
Experimental: as §3, §4

Kd [1]: 0.0144 nM | koff [1]: 4.07e-05 s⁻¹ | kon [1]: 2.81e+06 M⁻¹ s⁻¹ | Kd [2]: 0.0155 nM | koff [2]: 4.17e-05 s⁻¹ | kon [2]: 2.74e+06 M⁻¹ s⁻¹ | binding result [3]: no binding | binding result [4]: no binding | binding result [5]: no binding | binding result [6]: no binding | binding result [7]: no binding | kon [8]: 5.47e+06 M⁻¹ s⁻¹ | Kd [9]: 0.351 pM | Kd [10]: 4.04 pM
B1: 7E8 CDR graft Fab (Fab, V domains shown)
VH: EVQLVESGGGLVQPGGSLRLSCAASGFTFSSYWMYWVRQAPGKGLEWVASITPNGGNTYYPDSVKGRFTISRDNAKNSLYLQMNSLRAEDTAVYYCARGHYYYTSYSLGYWGQGTLVTVSS
VL: DIQMTQSPSSLSASVGDRVTITCKASQNINKHLDWYQQKPGKAPKLLIYFTNNLQTGVPSRFSGSGSGTDFTLTISSLQPEDFATYYCFQYNNGWTFGGGTKVEIKR
notes: also called 7E8 Fab; CDR grafted-7E8 Fab
